For one substance, HUVEC buds containing multiple filopodia results are on record in patent publication US20110223183A1.

The assay concerns the target Flt1/VEGFR1 (human) (UniProt P17948). The assay can be described thus: cell-based or functional assay.
Sequence of UniProt P17948 (P17948 27-1338): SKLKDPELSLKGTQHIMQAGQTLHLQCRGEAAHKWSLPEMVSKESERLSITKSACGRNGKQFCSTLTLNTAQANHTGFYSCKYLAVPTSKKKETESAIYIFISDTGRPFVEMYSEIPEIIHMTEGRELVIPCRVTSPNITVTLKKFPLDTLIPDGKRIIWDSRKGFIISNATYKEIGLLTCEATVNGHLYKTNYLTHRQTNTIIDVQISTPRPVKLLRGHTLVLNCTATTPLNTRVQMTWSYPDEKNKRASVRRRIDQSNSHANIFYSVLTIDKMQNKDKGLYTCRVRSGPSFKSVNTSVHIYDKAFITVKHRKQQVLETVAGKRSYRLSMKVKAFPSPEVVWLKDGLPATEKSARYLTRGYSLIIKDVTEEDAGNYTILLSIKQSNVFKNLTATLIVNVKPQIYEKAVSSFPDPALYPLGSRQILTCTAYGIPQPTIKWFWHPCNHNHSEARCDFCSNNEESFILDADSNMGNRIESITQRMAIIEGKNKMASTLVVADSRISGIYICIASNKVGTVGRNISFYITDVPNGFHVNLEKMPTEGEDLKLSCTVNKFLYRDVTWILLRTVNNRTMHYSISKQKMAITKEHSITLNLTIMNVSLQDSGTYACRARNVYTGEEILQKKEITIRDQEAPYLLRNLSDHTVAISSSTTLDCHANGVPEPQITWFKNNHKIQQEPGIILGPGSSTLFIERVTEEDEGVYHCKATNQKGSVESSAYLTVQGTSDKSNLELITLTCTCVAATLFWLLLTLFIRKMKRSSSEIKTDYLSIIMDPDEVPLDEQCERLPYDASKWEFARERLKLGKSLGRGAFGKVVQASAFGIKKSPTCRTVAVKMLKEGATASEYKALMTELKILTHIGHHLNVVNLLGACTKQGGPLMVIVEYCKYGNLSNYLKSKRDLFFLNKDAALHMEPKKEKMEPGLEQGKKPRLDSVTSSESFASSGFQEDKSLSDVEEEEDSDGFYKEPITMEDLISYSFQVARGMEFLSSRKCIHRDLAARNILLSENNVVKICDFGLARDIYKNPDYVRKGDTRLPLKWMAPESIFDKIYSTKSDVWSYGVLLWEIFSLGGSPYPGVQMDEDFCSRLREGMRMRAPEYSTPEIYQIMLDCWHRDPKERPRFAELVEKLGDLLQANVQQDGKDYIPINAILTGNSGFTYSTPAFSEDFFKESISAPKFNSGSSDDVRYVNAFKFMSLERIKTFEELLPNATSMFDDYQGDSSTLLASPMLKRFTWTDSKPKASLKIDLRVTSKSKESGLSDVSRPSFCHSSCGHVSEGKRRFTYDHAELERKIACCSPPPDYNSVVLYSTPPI

For the substance placental growth factor (ligand), the HUVEC buds containing multiple filopodia stood at 250%.
